Experimental data: PMC10433997, “Highly Cross-Reactive and Protective Influenza A Virus H3N2 Hemagglutinin- and Neuraminidase-Specific Human Monoclonal Antibodies” (Microbiology Spectrum, 2023)
Changes are numbered by the printed parent chain.

B1: 1092E4 H3-specific human monoclonal antibody (antibody, V domains shown)
VH: QVQLVQSGAEVKKPGASVKVSCKASGYSFTRYGISWVRQAPGQGLEWMGWISAYTGNTDYAQKFQGRITMTTDTSTSTVYMELRSLRSDDTAVYYCARDHPQGVVILGSYYYGMDVWGQGNTVTVSS
VL: EIVLTQSPGTLSLSPGERATLSCRASQSVTSRYLAWYQQKLGQAPRLLIYGASSRATGIPDRFSGSGSGTDFTLTISSLEPEDFAVYYCQQSGSPRTFGQGTKVEIK
notes: also called H3 hMAb 1092E4; source: HEK293T, transfected; IgG captured and eluted from Magne protein A beads
B2: 1092C4 H3-specific human monoclonal antibody (antibody, V domains shown)
VH: B1 VH with Q1E, V79A, H100L
VL: B1 VL with F84L
notes: also called H3 hMAb 1092C4; source: HEK293T, transfected; IgG captured and eluted from Magne protein A beads

Columns and labels:
[1] = target: T1, H3 hemagglutinin protein of A/Brisbane/10/2007 H3N2 (Influenza A virus A/Brisbane/10/2007 …, UniProt A8W8K8, strain); assay: cell-based or functional assay
[2] = target: T2, hemagglutinin (HA) of A/Switzerland/9715283/2013 H3N2 (Influenza A virus …, strain); assay: cell-based or functional assay
[3] = target: T3, hemagglutinin (HA) of A/Hong Kong/1/1968 H3N2 (Influenza A virus A/Hong Kong/1/1968 …, UniProt Q91MA7); assay: immunostaining of cells or tissue; conditions: one partner purified
T3 construct: source: MDCK cells infected with the virus (BEI Resources)

[4] = target: T1, H3 hemagglutinin protein of …; assay: cell-based or functional assay; remark: listed apart in the source
[5] = target: T2, hemagglutinin (HA) of …; assay: cell-based or functional assay; remark: listed apart in the source
[6] = target: recombinant hemagglutinin (HA) of A/Netherlands/219/03 H7N7 (Influenza A virus …, UniProt Q6VMK1, strain); assay: ELISA; conditions: both partners purified

Binder | hemagglutination inhibition (HAI) IC50, virus A/Brisbane/10/2007 H3N2 [1] | hemagglutination inhibition (HAI) IC50, virus A/Switzerland/9715293/2013 H3N2 [2] | binding result [3] | microneutralization IC50, virus A/Brisbane/10/2007 H3N2 [4] | microneutralization IC50, virus A/Switzerland/9715293/2013 H3N2 [5] | binding result [6]
B1 | 3.13 µg/mL | 50 µg/mL | binds | 0.1 µg/mL | 6.25 µg/mL | binds
B2 | < 0.05 µg/mL | 50 µg/mL | binds | 0.1 µg/mL | 0.78 µg/mL | binds
